Experimental data: doi:10.1101/2021.07.08.451670

Biological target: P-GltPh (S279E/D405N) (UniProt O59010)
Assay: cryo-EM structure

P-GltPh (S279E/D405N) (from UniProt O59010 1-417) (natural protein)
stoichiometry N: 3
